Assay results published in article PMC10786891, “Massively parallel profiling of RNA-targeting CRISPR-Cas13d”.

T1: EsCas13d, nuclease-dead (Eubacterium siraeum, UniProt B0MS50, R295A;H300A;R849A;H854A)
T1 sequence: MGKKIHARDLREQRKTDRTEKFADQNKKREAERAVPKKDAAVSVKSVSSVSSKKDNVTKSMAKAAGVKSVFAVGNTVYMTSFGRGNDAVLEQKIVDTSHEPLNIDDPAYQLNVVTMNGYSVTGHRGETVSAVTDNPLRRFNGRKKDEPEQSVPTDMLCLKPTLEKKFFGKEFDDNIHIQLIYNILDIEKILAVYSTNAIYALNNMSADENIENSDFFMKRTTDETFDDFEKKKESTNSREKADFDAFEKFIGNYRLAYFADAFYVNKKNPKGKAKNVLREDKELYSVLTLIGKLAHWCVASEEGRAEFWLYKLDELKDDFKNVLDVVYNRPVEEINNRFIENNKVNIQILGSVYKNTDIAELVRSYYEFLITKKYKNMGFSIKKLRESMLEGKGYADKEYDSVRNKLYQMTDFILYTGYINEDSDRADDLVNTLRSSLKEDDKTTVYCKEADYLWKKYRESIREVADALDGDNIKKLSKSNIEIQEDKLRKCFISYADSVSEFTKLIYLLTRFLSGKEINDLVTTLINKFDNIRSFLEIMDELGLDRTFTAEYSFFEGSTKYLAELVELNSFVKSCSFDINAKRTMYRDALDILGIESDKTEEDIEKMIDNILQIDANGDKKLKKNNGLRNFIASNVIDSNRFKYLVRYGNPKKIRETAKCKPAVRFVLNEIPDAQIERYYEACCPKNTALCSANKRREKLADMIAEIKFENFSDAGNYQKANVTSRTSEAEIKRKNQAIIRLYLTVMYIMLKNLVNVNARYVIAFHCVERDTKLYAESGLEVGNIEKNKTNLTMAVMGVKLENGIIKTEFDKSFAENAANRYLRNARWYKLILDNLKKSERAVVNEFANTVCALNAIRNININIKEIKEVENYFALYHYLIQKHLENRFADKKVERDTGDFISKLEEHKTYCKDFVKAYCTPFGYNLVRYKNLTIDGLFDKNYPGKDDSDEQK


molecular target: T1, EsCas13d, nuclease-dead; experiment: crRNA (strand 1, pre-loaded); Mg2+; 40 mM Tris-HCl pH 7.5, 150 mM NaCl, 6 mM MgCl2, 1 mM DTT, 0.1% Tween-20, 0.2 mg/ml BSA; 25 C; 10 min per concentration, then washed; settings: tags: His6-TwinStrep-SUMO cleaved; N-terminal SNAP kept (SNAP-Surface 488); label: 3' end held by stalled T7 RNA polymerase

Row | Binder | Kd
1 | target 2 MT 5'PFS AAC 3'PFS CCG (mixed) RNA 1: CACCCGUGCAAAAUUGCAGGGGUCUAAAACCUUCUCCAAAUUGUUUCAUCCU RNA 2: GGGAAUGGAUCCACAUCUACGAAUUCAACAGGAUGAAACAAUUUGGAGAAGCCGAGAUCGGAAGAGCACACGU | 5.9 ± 0.6 nM
2 | target 2 MT 5'PFS UAU 3'PFS CAU (mixed) RNA 1: CACCCGUGCAAAAUUGCAGGGGUCUAAAACCUUCUCCAAAUUGUUUCAUCCU RNA 2: GGGAAUGGAUCCACAUCUACGAAUUCUAUAGGAUGAAACAAUUUGGAGAAGCAUAGAUCGGAAGAGCACACGU | 24.1 ± 2.7 nM
3 | target 2 MT 5'PFS UAA 3'PFS CUU (mixed) RNA 1: CACCCGUGCAAAAUUGCAGGGGUCUAAAACCUUCUCCAAAUUGUUUCAUCCU RNA 2: GGGAAUGGAUCCACAUCUACGAAUUCUAAAGGAUGAAACAAUUUGGAGAAGCUUAGAUCGGAAGAGCACACGU | 6.9 ± 1.5 nM
4 | target 2 MT 5'PFS AUA 3'PFS UCC (mixed) RNA 1: CACCCGUGCAAAAUUGCAGGGGUCUAAAACCUUCUCCAAAUUGUUUCAUCCU RNA 2: GGGAAUGGAUCCACAUCUACGAAUUCAUAAGGAUGAAACAAUUUGGAGAAGUCCAGAUCGGAAGAGCACACGU | 15.6 ± 2.1 nM
5 | target 2 MT 5'PFS GCU 3'PFS ACG (mixed) RNA 1: CACCCGUGCAAAAUUGCAGGGGUCUAAAACCUUCUCCAAAUUGUUUCAUCCU RNA 2: GGGAAUGGAUCCACAUCUACGAAUUCGCUAGGAUGAAACAAUUUGGAGAAGACGAGAUCGGAAGAGCACACGU | 14.6 ± 1.4 nM
6 | target 2 MT 5'PFS AUU 3'PFS AUC (mixed) RNA 1: CACCCGUGCAAAAUUGCAGGGGUCUAAAACCUUCUCCAAAUUGUUUCAUCCU RNA 2: GGGAAUGGAUCCACAUCUACGAAUUCAUUAGGAUGAAACAAUUUGGAGAAGAUCAGAUCGGAAGAGCACACGU | 9.5 ± 1 nM
7 | target 2 MT 5'PFS AUU 3'PFS AUA (mixed) RNA 1: CACCCGUGCAAAAUUGCAGGGGUCUAAAACCUUCUCCAAAUUGUUUCAUCCU RNA 2: GGGAAUGGAUCCACAUCUACGAAUUCAUUAGGAUGAAACAAUUUGGAGAAGAUAAGAUCGGAAGAGCACACGU | 5.3 ± 0.4 nM
8 | target 2 MT 5'PFS AUA 3'PFS UCA (mixed) RNA 1: CACCCGUGCAAAAUUGCAGGGGUCUAAAACCUUCUCCAAAUUGUUUCAUCCU RNA 2: GGGAAUGGAUCCACAUCUACGAAUUCAUAAGGAUGAAACAAUUUGGAGAAGUCAAGAUCGGAAGAGCACACGU | 12.3 ± 2.6 nM
9 | target 2 MT 5'PFS AGC 3'PFS UUG (mixed) RNA 1: CACCCGUGCAAAAUUGCAGGGGUCUAAAACCUUCUCCAAAUUGUUUCAUCCU RNA 2: GGGAAUGGAUCCACAUCUACGAAUUCAGCAGGAUGAAACAAUUUGGAGAAGUUGAGAUCGGAAGAGCACACGU | 10.6 ± 1.4 nM
10 | target 2 MT 5'PFS GCU 3'PFS ACA (mixed) RNA 1: CACCCGUGCAAAAUUGCAGGGGUCUAAAACCUUCUCCAAAUUGUUUCAUCCU RNA 2: GGGAAUGGAUCCACAUCUACGAAUUCGCUAGGAUGAAACAAUUUGGAGAAGACAAGAUCGGAAGAGCACACGU | 15 ± 4 nM
11 | target 2 MT 5'PFS GCA 3'PFS AGU (mixed) RNA 1: CACCCGUGCAAAAUUGCAGGGGUCUAAAACCUUCUCCAAAUUGUUUCAUCCU RNA 2: GGGAAUGGAUCCACAUCUACGAAUUCGCAAGGAUGAAACAAUUUGGAGAAGAGUAGAUCGGAAGAGCACACGU | 28 ± 10 nM
12 | target 2 MT 5'PFS GCU 3'PFS ACU (mixed) RNA 1: CACCCGUGCAAAAUUGCAGGGGUCUAAAACCUUCUCCAAAUUGUUUCAUCCU RNA 2: GGGAAUGGAUCCACAUCUACGAAUUCGCUAGGAUGAAACAAUUUGGAGAAGACUAGAUCGGAAGAGCACACGU | 23 ± 4 nM
13 | target 2 MT 5'PFS UAA 3'PFS CUA (mixed) RNA 1: CACCCGUGCAAAAUUGCAGGGGUCUAAAACCUUCUCCAAAUUGUUUCAUCCU RNA 2: GGGAAUGGAUCCACAUCUACGAAUUCUAAAGGAUGAAACAAUUUGGAGAAGCUAAGAUCGGAAGAGCACACGU | 4.6 ± 0.5 nM
14 | target 2 MT 5'PFS AGC 3'PFS UUU (mixed) RNA 1: CACCCGUGCAAAAUUGCAGGGGUCUAAAACCUUCUCCAAAUUGUUUCAUCCU RNA 2: GGGAAUGGAUCCACAUCUACGAAUUCAGCAGGAUGAAACAAUUUGGAGAAGUUUAGAUCGGAAGAGCACACGU | 20 ± 4 nM
15 | target 2 MT 5'PFS GCU 3'PFS ACC (mixed) RNA 1: CACCCGUGCAAAAUUGCAGGGGUCUAAAACCUUCUCCAAAUUGUUUCAUCCU RNA 2: GGGAAUGGAUCCACAUCUACGAAUUCGCUAGGAUGAAACAAUUUGGAGAAGACCAGAUCGGAAGAGCACACGU | ~30 nM
16 | target 2 MT 5'PFS AUA 3'PFS UCG (mixed) RNA 1: CACCCGUGCAAAAUUGCAGGGGUCUAAAACCUUCUCCAAAUUGUUUCAUCCU RNA 2: GGGAAUGGAUCCACAUCUACGAAUUCAUAAGGAUGAAACAAUUUGGAGAAGUCGAGAUCGGAAGAGCACACGU | 20 ± 6 nM
17 | target 2 MT 5'PFS UCU 3'PFS AUG (mixed) RNA 1: CACCCGUGCAAAAUUGCAGGGGUCUAAAACCUUCUCCAAAUUGUUUCAUCCU RNA 2: GGGAAUGGAUCCACAUCUACGAAUUCUCUAGGAUGAAACAAUUUGGAGAAGAUGAGAUCGGAAGAGCACACGU | 8.3 ± 1.5 nM
18 | target 2 MT 5'PFS UCU 3'PFS AUC (mixed) RNA 1: CACCCGUGCAAAAUUGCAGGGGUCUAAAACCUUCUCCAAAUUGUUUCAUCCU RNA 2: GGGAAUGGAUCCACAUCUACGAAUUCUCUAGGAUGAAACAAUUUGGAGAAGAUCAGAUCGGAAGAGCACACGU | 7.3 ± 1 nM
19 | target 2 MT 5'PFS UAA 3'PFS CUG (mixed) RNA 1: CACCCGUGCAAAAUUGCAGGGGUCUAAAACCUUCUCCAAAUUGUUUCAUCCU RNA 2: GGGAAUGGAUCCACAUCUACGAAUUCUAAAGGAUGAAACAAUUUGGAGAAGCUGAGAUCGGAAGAGCACACGU | 6.2 ± 1.1 nM
20 | target 2 MT 5'PFS CAU 3'PFS ACG (mixed) RNA 1: CACCCGUGCAAAAUUGCAGGGGUCUAAAACCUUCUCCAAAUUGUUUCAUCCU RNA 2: GGGAAUGGAUCCACAUCUACGAAUUCCAUAGGAUGAAACAAUUUGGAGAAGACGAGAUCGGAAGAGCACACGU | 7.9 ± 2.5 nM
21 | target 2 MT 5'PFS AUA 3'PFS UCU (mixed) RNA 1: CACCCGUGCAAAAUUGCAGGGGUCUAAAACCUUCUCCAAAUUGUUUCAUCCU RNA 2: GGGAAUGGAUCCACAUCUACGAAUUCAUAAGGAUGAAACAAUUUGGAGAAGUCUAGAUCGGAAGAGCACACGU | 33 ± 15 nM
22 | target 2 MT 5'PFS AGC 3'PFS UUA (mixed) RNA 1: CACCCGUGCAAAAUUGCAGGGGUCUAAAACCUUCUCCAAAUUGUUUCAUCCU RNA 2: GGGAAUGGAUCCACAUCUACGAAUUCAGCAGGAUGAAACAAUUUGGAGAAGUUAAGAUCGGAAGAGCACACGU | 10.9 ± 2.4 nM
23 | target 2 MT 5'PFS UAA 3'PFS CUC (mixed) RNA 1: CACCCGUGCAAAAUUGCAGGGGUCUAAAACCUUCUCCAAAUUGUUUCAUCCU RNA 2: GGGAAUGGAUCCACAUCUACGAAUUCUAAAGGAUGAAACAAUUUGGAGAAGCUCAGAUCGGAAGAGCACACGU | 6.7 ± 0.9 nM
24 | target 2 MT 5'PFS AGG 3'PFS CUA (mixed) RNA 1: CACCCGUGCAAAAUUGCAGGGGUCUAAAACCUUCUCCAAAUUGUUUCAUCCU RNA 2: GGGAAUGGAUCCACAUCUACGAAUUCAGGAGGAUGAAACAAUUUGGAGAAGCUAAGAUCGGAAGAGCACACGU | 6.7 ± 1.1 nM
25 | target 2 MT 5'PFS UUG 3'PFS UUU (mixed) RNA 1: CACCCGUGCAAAAUUGCAGGGGUCUAAAACCUUCUCCAAAUUGUUUCAUCCU RNA 2: GGGAAUGGAUCCACAUCUACGAAUUCUUGAGGAUGAAACAAUUUGGAGAAGUUUAGAUCGGAAGAGCACACGU | 25.5 ± 3.3 nM
26 | target 1 C4U,A20C (mixed) RNA 1: CACCCGUGCAAAAAUGCAGGGGUCUAAAACUGAGCGGAUAACCUCUCUAUGG RNA 2: GGGAAUGGAUCCACAUCUACGAAUUCGUACCCUAGAGAGGUUAUCCGUUCACCGAGAUCGGAAGAGCACACGU | ~90 nM
27 | target 1 C7U,A18C (mixed) RNA 1: CACCCGUGCAAAAAUGCAGGGGUCUAAAACUGAGCGGAUAACCUCUCUAUGG RNA 2: GGGAAUGGAUCCACAUCUACGAAUUCGUACCAUCGAGAGGUUAUUCGCUCACCGAGAUCGGAAGAGCACACGU | 55 ± 5 nM
28 | target 1 G12U,A20U (mixed) RNA 1: CACCCGUGCAAAAAUGCAGGGGUCUAAAACUGAGCGGAUAACCUCUCUAUGG RNA 2: GGGAAUGGAUCCACAUCUACGAAUUCGUACCUUAGAGAGUUUAUCCGCUCACCGAGAUCGGAAGAGCACACGU | 27.5 ± 2.3 nM
